The values below come from paper PMC6403000.

What all share (assay): SEC
For orientation: In gel filtration, larger molecules generally elute earlier.

Assay [1] deals with CtHsp104 lacking the NTD (residues 153-882) (Calcarisporiella thermophila).
For assay [2], the target named is CtHsp104 lacking the NTD and the CTT (residues 153-864) (Calcarisporiella thermophila).
The target of assay [3] is CtHsp104 lacking the NTD with mutated Walker B motifs (E275Q:E679Q) (Calcarisporiella thermophila).
Assay [4] has as its target CtHsp104 lacking the NTD with mutated arginine fingers (R328M/R757M) (Calcarisporiella thermophila).

A word on the stoichiometry N: it is the number of molecules, sites or subunits per partner or assembly.

On to “CtHsp104 lacking the NTD (residues 153-882) (domain or fragment)”, for which the stoichiometry N in assay [1] was 6. In the case of “CtHsp104 lacking the NTD and the CTT (residues 153-864) (domain or fragment)”, the stoichiometry N in assay [2] was 6. For the substance “CtHsp104 lacking the NTD with mutated Walker B motifs (E275Q:E679Q) (domain or fragment)”, in assay [3], the stoichiometry N is 6. Consider “CtHsp104 lacking the NTD with mutated arginine fingers (R328M/R757M) (domain or fragment)”, for which the stoichiometry N in assay [4] was 6.
